The source of these data is patent publication US20200157217A1 (SYSTIMMUNE, published 2020).

The target in one assay is Cyno T cell line. The experiment in a line: FACS, B cell culture supernatant on the cynomolgus T cell line (HSC-F per paragraph 87). On the technique in general: In flow cytometry, cells or beads pass a laser one at a time.
The target in assay [1] is T1, human CD3 (Delta, Gamma, Epsilon) on the human T cell line Jurkat or on purified human CD3+ T cells (human, UniProt P07766 23-207; P09693 23-182; P04234 22-171).
T1 construct: whole, on cells; On cells CD3 sits in the TCR complex
T1 sequence (P07766 23-207, stated change not applied, chain 1 of 3): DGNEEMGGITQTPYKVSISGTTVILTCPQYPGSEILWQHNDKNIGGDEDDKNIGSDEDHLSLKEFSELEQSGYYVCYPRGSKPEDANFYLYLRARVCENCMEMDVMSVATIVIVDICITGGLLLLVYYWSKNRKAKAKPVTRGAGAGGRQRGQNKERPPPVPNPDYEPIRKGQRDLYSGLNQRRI
T1 sequence (P09693 23-182, stated change not applied, chain 2 of 3): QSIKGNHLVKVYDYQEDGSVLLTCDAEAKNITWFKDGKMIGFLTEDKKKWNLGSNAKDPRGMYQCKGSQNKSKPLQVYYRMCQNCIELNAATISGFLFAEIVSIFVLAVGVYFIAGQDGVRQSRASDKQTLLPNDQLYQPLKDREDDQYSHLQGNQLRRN
T1 sequence (P04234 22-171, stated change not applied, chain 3 of 3): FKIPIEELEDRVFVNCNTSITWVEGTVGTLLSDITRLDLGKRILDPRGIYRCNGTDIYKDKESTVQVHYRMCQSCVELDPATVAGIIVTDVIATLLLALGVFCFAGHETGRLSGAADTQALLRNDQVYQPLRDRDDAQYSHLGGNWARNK
The experiment in a line: FACS, antibody titration on Jurkat cells.

Assay [2] addresses T2, human CD3 Delta/Epsilon Fc fusion protein (human, UniProt P04234 22-105; P07766 23-126).
T2 construct: Construct limits and Fc are not described; also called Human CD3 Delta-Epsilon Fc ("Knobs-into-hole"-KnH)
The experiment in a line: Octet (bio-layer interferometry), bivalent kdis.

Assay [3] has as its target T3, human CD3 Gamma/Epsilon Fc fusion protein (human, UniProt P09693 23-116; P07766 23-126).
T3 construct: Construct limits and Fc are not described; also called Gamma-Epsilon Fc (KnH)
Kind of assay: Octet (bio-layer interferometry), bivalent kdis; antigen printed 'Epsilon-Gamma', taken as the human Gamma/Epsilon Fc that paragraph 95 names for FIG. 8.

For assay [4], the target named is T3, human CD3 Gamma/Epsilon Fc fusion …. Kind of assay: Octet (bio-layer interferometry), bivalent kdis; antigen printed 'Human δ/γ - Fc', taken as the Gamma/Epsilon Fc that paragraph 95 names for FIG. 8. On the technique in general: In BLI a coated tip is dipped into the sample, and binding shifts an interference pattern.
Assay [5] addresses T1, human CD3 (Delta, Gamma, Epsilon) on …. Kind of assay: FACS, antibody titration on Jurkat cells. This is another data set of the same source.

As a reminder, the koff is a measure of how fast the partners let go of each other.

Substitutions are numbered along the chain they refer to. Where two headings read alike, the source gives them in different places.

T2 sequence (P04234 22-105, stated change not applied, chain 1 of 2): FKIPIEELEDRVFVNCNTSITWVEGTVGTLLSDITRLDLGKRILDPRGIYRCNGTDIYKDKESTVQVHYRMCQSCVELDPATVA
T2 sequence (P07766 23-126, stated change not applied, chain 2 of 2): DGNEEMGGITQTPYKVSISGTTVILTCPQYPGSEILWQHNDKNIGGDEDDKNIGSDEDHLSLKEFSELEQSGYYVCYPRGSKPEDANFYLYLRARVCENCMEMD
T3 sequence (P09693 23-116, chain 1 of 2): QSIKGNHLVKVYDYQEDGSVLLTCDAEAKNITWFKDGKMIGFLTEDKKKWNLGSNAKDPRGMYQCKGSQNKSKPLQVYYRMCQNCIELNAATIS
T3 sequence (P07766 23-126, chain 2 of 2): as the sequence (P07766 23-126, stated change not applied, chain 2 of 2) above

B1: 284A10 (antibody, V domains shown)
VH: QSLEESGGRLVTPGTPLTLTCTVSGFTISTNAMSWVRQVPGKGLEWIGVITGRDITYYASWAKGRFTISKTSSTTVDLKMTSLTAEDSATYFCARDGGSSAITSNNIWGPGTLVTVSS
VL: DVVMTQTPPSVSAAVGGTVTIKCQASESISSWLAWYQQKPGQPPKLLIYEASKLASGVPSRFSGSGSGTEFTLTISDLECADAATYYCQGYFYFISRTYVNSFGGGTEVEFK
Turning to B1, the MFI with Cyno T cell line was found to be 615 MFI.

B2: 480A7 chimeric rabbit/human IgG antibody (antibody, V domains shown)
VH: B1 VH with F26I, T27D, I28L, T30S, V39A, N105K
VL: DVVMTQTPASVEAAVGGTVTINCQASESISSWLAWYQQRPGQPPKLLIYEASKLASGVPSRFSGSGSGTEFTLTISDLECADAATYYCQGYFYFISRSYVNAFGGGTEVVFKR
As to B2, in assay [1], the binding result was “binds”. Besides, the koff in assay [2] was determined as 0.00066 s⁻¹; in assay [3], 0.0006 s⁻¹.

B3: 299F6 chimeric rabbit/human IgG antibody (antibody, V domains shown)
VH: B1 VH with T30S, V39A, S60N
VL: B2 VL with A9S, E12S, R39K
Take B3: the koff came to 0.00049 s⁻¹ in assay [2] and 0.00045 s⁻¹ in assay [4].

B4: 295E9 (antibody, V domains shown)
VH: B1 VH with F26I, T27D, I28L, T30S, V39A, T56N, N105K
VL: B1 VL with P9A, S12E, K22N, K39R, S63K, T98S, S102A, E110V, F111V
B4 displayed an MFI with Cyno T cell line of 549 MFI.

B5: 295E9 chimeric rabbit/human IgG antibody (antibody, V domains shown)
VH: B1 VH with F26I, T27D, I28L, T30S, V39A, T56N, N105K
VL: B2 VL with S63K, F111V
For the molecule B5, the koff in assay [2] and in assay [4] was 0.0052 s⁻¹ in each case.

B6: 284A10 chimeric rabbit/human IgG antibody (antibody, V domains shown)
VH: B1 VH
VL: B2 VL with A9P, E12S, N22K, R39K, S98T, A102S, V110E
B6: the koff is 0.0005 s⁻¹ in assay [2] and 0.0013 s⁻¹ in assay [4].

B7: 480C8 chimeric rabbit/human IgG antibody (antibody, V domains shown)
VH: B1 VH with F26I, T27D, I28L, T30S, V39A, T103N, N105K, P110Q
VL: B2 VL with A9S, E12S, R39K, S98T, V110E
notes: also called 48008
Consider B7, for which the binding result in assay [5] is given as “binds”. Further, the koff in assay [2] was found to be 0.00042 s⁻¹; in assay [4], 0.00054 s⁻¹.

B8: 299F6 1.1 (antibody, human IgG1, kappa, V domains shown)
VH: EVQLVESGGGLVQPGGSLRLSCAASGFTISSNAMSWVRQAPGKGLEWIGVITGRDITYYANWAKGRFTISRDNSKNTLYLQMNSLRAEDTAVYYCARDGGSSAITSNNIWGQGTLVTVSS
VL: DIQMTQSPSTLSASVGDRVTITCQASESISSWLAWYQQKPGKAPKLLIYEASKLASGVPSRFSGSGSGTEFTLTISSLQPDDFATYYCQGYFYFISRSYVNAFGGGTKVEIKR
notes: sheet: mAb '299F6 1.1', format 'humanized'; also called 299F6 humanized
In assay [2], B8 came in with a koff of 0.0006 s⁻¹.

B9: 480C8 1.1 (antibody, human IgG1, kappa, V domains shown)
VH: B8 VH with F27I, T28D, I29L, N61S, T105N, N107K
VL: B8 VL with S98T
notes: sheet: mAb '480C8 1.1', format 'humanized'; also called 480C8 humanized
B9 yielded an off-rate (koff) in assay [2] of 0.0005 s⁻¹.

B10: 284A10 1.1 (antibody, human IgG1, kappa, V domains shown)
VH: B8 VH with S31T, N61S
VL: B8 VL with I2V, Q3V, T22N, S98T, A102S
notes: sheet: mAb '284A10 1.1', format 'humanized'; also called 284A10 humanized
In assay [2], B10 had an off-rate constant (koff) of 0.00053 s⁻¹.
